From doi:10.1101/2025.09.05.674518 (bioRxiv, 2025)
Changes are numbered by the printed parent chain.

B1: VHH88 (VHH)
chain: QVQLQESGGGLVQAGDSLTLSCARSGRIFNSVPMGWFRQAPGKEREIVAAISGNGVNTYYADSVKGRFAISRDSAKNTYLQMSSLKPEDTAVYYCAARVTPWDTRYYLDDYQYWGQGTQVTVSS
B2: VHH97 (VHH)
chain: B1 chain with D16G, T19R, R24K, N30S, V56E, A69T, S74N, T104S, Q112H
B3: VHH93 (VHH)
chain: QVQLQESGGGLVQAGDSLRLSCVVSGRFLSGYAVGWFRQAPGNERDFVAAFTWIGGQTSYADSVKGRFTVSRDNAKNTLYLQMNNLKPEDTAVYYCAAKVAIVPPTTARGYDYWGQGTQVTVSS
B4: VHH5, His6-tagged, purified from Pichia pastoris (VHH)
VHH: QVQLQESGGGLVQAGDSLILSCAASGRTFSSSAMGWFRQAPGKEREFVAAITYSGISTEYADSVKGRFTISRDNPKSTLYLRMNSLKAEDTAVYYCAARRNGYYSRSHYSTDYEYWGRGTQVTVSS
B5: VHH7, His6-tagged, purified from Pichia pastoris (VHH)
VHH: QVQLQESGGGLVQAGDSLRLSCANSGRTRSAMGWFRQAPGKEREFVAAITWSGYGTYYADSVKGRFTISRDNAKNALYLRMNSLKPDDTAVYYCAARRNQYYSYSSASADYDYWGQGTQVTVSS

What was measured:
[1] = target: T1, M527D MXA (Homo sapiens, UniProt P20591)
T1 chain: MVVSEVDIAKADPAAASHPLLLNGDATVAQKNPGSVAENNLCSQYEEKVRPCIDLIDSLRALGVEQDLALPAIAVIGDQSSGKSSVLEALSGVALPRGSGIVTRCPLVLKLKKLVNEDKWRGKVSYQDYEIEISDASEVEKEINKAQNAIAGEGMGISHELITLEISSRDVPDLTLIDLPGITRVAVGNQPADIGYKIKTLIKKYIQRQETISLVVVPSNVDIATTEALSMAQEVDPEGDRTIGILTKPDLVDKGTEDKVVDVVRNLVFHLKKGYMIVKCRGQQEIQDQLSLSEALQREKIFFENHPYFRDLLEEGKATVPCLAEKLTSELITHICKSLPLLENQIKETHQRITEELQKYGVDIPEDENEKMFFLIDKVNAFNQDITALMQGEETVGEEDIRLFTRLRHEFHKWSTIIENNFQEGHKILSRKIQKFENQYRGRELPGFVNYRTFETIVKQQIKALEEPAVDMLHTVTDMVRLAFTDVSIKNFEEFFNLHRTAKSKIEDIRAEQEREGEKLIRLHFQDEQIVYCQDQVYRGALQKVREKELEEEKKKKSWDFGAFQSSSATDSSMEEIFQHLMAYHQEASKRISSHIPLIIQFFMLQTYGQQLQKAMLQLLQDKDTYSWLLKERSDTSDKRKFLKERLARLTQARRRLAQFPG

[2] = target: wild-type human MXA (Myxovirus resistance protein A), MAPPIT bait or prey (Homo sapiens, UniProt P20591)
[3] = target: recombinant wild-type human MXA (Homo sapiens, UniProt P20591); assay: ELISA

Binder	binding result [1]	binding result [2]	binding result [3]
B1	binds	binds	
B2	binds	binds	
B3	binds	binds	
B4			binds
B5			binds
